From article PMC12152872 (2025)
“And” between values parts separate entries of the source, which are not always exact repeats. Identical values can stand only once.

Molecular target: T1, BTN2A1 B30.2 (Homo sapiens, UniProt Q7KYR7)
T1 chain: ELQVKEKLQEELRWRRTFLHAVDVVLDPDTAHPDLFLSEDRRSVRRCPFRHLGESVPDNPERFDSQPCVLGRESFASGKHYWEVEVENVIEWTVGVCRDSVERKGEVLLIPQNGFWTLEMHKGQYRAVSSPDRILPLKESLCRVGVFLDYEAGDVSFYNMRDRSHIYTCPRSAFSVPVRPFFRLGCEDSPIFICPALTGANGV
Test: ITC

Kd: 8.19 µM and 18.8 µM
B1: BTN3A1 B30.2 (protein)
chain: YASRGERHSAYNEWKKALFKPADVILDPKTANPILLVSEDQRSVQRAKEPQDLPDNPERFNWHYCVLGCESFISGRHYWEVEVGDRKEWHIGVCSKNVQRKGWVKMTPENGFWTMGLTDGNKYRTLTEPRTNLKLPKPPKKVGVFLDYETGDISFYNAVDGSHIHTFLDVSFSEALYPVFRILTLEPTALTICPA
modifications: DMASPP
